From publication PMC8965865 come the findings set out here.

The target of data set [1] is T1, Fur (Mycobacterium smegmatis mc2155) (UniProt A0QXX6).
T1 sequence: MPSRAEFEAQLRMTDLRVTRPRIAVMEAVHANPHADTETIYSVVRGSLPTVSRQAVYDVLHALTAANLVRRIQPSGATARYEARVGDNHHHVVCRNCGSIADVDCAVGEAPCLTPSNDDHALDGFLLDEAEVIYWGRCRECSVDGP
In words: EMSA. Particulars: 20 mM Tris HCl pH 8.0, 1 mM DTT, 50 mM KCl, 5 mM MgCl2, 20 ul, 30 min at 30 C. Background: In EMSA bound probe runs differently from free probe, usually more slowly.

The target in data set [2] is T2, mFur (A28V Fur) A28V (Mycobacterium smegmatis mc251) (UniProt A0QXX6).
T2 sequence: T1 sequence with A28V
In words: EMSA. Particulars: 20 mM Tris HCl pH 8.0, 1 mM DTT, 50 mM KCl, 5 mM MgCl2, 20 ul, 30 min at 30 C.

Positions count from the first letter of the chain named.

For the sequence “CATCCGCAGTTGGGCTTCGAACTCCGCCCGAGAGGGCATGCCGCCCACCTTGCTCGCCCGATTGGACGCAGTCAAGTCTTTCTCGAATTCGGTATGTCGGTGCATGTCTCGCTCCGATCTGGGAGCTCGGATGGGAGGCGCAAGAGCGAGCCGCGTTCGGCCATTGTCGGCCGACCGCTTCTGCGCGCAGGCTTGCTGCGGCGGTTACCCCGATGTGCCCGACGCTATACCTCCAGCCGAAGAAATTTCTTGCAATGGTTGTTTTCCAACG (double strand) [fur promoter DNA fragment]”, the figures for the binding entry in data set [1] and in data set [2] were “binds” and “binds more weakly”, respectively.
